{
  "source": "patent US20150344570A1",
  "about": "(published 2015)",
  "binders": {"B1": {"name": "GpH7-B3 variant A330_05P/GpL16-k0 (antibody, human IgG1, kappa)", "heavy": "not shown", "light": "DIVMTQSPLSLPVTPGEPASISCQASESLVHSNRNTYLHWYLQKPGQSPQLLIYKVSNRFSGVPDRFSGSGSGTDFTLKISRVEAEDVGVYYCSQNTHVPPTFGQGTKVEIERTVAAPSVFIFPPSDEQLKSGTASVVCLLNNFYPREAKVQWKVDNALQSGNSQESVTEQDSKDSTYSLSSTLTLSKADYEKHKVYACEVTHQGLSSPVTKSFNRGEC", "notes": "both H chains altered; also called Ho Ab A330_05P"}, "B2": {"name": "GpH7-B3 variant E333_02A/GpL16-k0 (antibody, human IgG1, kappa)", "heavy": "not shown", "light": "DIVMTQSPLSLPVTPGEPASISCQASESLVHSNRNTYLHWYLQKPGQSPQLLIYKVSNRFSGVPDRFSGSGSGTDFTLKISRVEAEDVGVYYCSQNTHVPPTFGQGTKVEIERTVAAPSVFIFPPSDEQLKSGTASVVCLLNNFYPREAKVQWKVDNALQSGNSQESVTEQDSKDSTYSLSSTLTLSKADYEKHKVYACEVTHQGLSSPVTKSFNRGEC", "notes": "both H chains altered; also called Ho Ab E333_02A"}, "B3": {"name": "GpH7-B3 variant E333_13S/GpL16-k0 (antibody, human IgG1, kappa)", "heavy": "not shown", "light": "DIVMTQSPLSLPVTPGEPASISCQASESLVHSNRNTYLHWYLQKPGQSPQLLIYKVSNRFSGVPDRFSGSGSGTDFTLKISRVEAEDVGVYYCSQNTHVPPTFGQGTKVEIERTVAAPSVFIFPPSDEQLKSGTASVVCLLNNFYPREAKVQWKVDNALQSGNSQESVTEQDSKDSTYSLSSTLTLSKADYEKHKVYACEVTHQGLSSPVTKSFNRGEC", "notes": "both H chains altered; also called Ho Ab E333_13S"}, "B4": {"name": "GpH7-B3 variant A330_07I/GpL16-k0 (antibody, human IgG1, kappa)", "heavy": "not shown", "light": "DIVMTQSPLSLPVTPGEPASISCQASESLVHSNRNTYLHWYLQKPGQSPQLLIYKVSNRFSGVPDRFSGSGSGTDFTLKISRVEAEDVGVYYCSQNTHVPPTFGQGTKVEIERTVAAPSVFIFPPSDEQLKSGTASVVCLLNNFYPREAKVQWKVDNALQSGNSQESVTEQDSKDSTYSLSSTLTLSKADYEKHKVYACEVTHQGLSSPVTKSFNRGEC", "notes": "both H chains altered; also called Ho Ab A330_07I"}, "B5": {"name": "GpH7-B3 variant E333_03V/GpL16-k0 (antibody, human IgG1, kappa)", "heavy": "not shown", "light": "DIVMTQSPLSLPVTPGEPASISCQASESLVHSNRNTYLHWYLQKPGQSPQLLIYKVSNRFSGVPDRFSGSGSGTDFTLKISRVEAEDVGVYYCSQNTHVPPTFGQGTKVEIERTVAAPSVFIFPPSDEQLKSGTASVVCLLNNFYPREAKVQWKVDNALQSGNSQESVTEQDSKDSTYSLSSTLTLSKADYEKHKVYACEVTHQGLSSPVTKSFNRGEC", "notes": "both H chains altered; also called Ho Ab E333_03V"}, "B6": {"name": "GpH7-B3 variant E333_04F/GpL16-k0 (antibody, human IgG1, kappa)", "heavy": "not shown", "light": "DIVMTQSPLSLPVTPGEPASISCQASESLVHSNRNTYLHWYLQKPGQSPQLLIYKVSNRFSGVPDRFSGSGSGTDFTLKISRVEAEDVGVYYCSQNTHVPPTFGQGTKVEIERTVAAPSVFIFPPSDEQLKSGTASVVCLLNNFYPREAKVQWKVDNALQSGNSQESVTEQDSKDSTYSLSSTLTLSKADYEKHKVYACEVTHQGLSSPVTKSFNRGEC", "notes": "both H chains altered; also called Ho Ab E333_04F"}, "B7": {"name": "GpH7-A5/GpH7-B3 variant Y300_08L/GpL16-k0 (antibody, human IgG1, kappa)", "heavy 1": "not shown", "heavy 2": "not shown", "light": "DIVMTQSPLSLPVTPGEPASISCQASESLVHSNRNTYLHWYLQKPGQSPQLLIYKVSNRFSGVPDRFSGSGSGTDFTLKISRVEAEDVGVYYCSQNTHVPPTFGQGTKVEIERTVAAPSVFIFPPSDEQLKSGTASVVCLLNNFYPREAKVQWKVDNALQSGNSQESVTEQDSKDSTYSLSSTLTLSKADYEKHKVYACEVTHQGLSSPVTKSFNRGEC", "notes": "heterodimerized IgG1, mutation in one H chain only; also called He Ab"}, "B8": {"name": "GpH7-A5/GpH7-B3 variant Y300_03V/GpL16-k0 (antibody, human IgG1, kappa)", "heavy 1": "not shown", "heavy 2": "not shown", "light": "DIVMTQSPLSLPVTPGEPASISCQASESLVHSNRNTYLHWYLQKPGQSPQLLIYKVSNRFSGVPDRFSGSGSGTDFTLKISRVEAEDVGVYYCSQNTHVPPTFGQGTKVEIERTVAAPSVFIFPPSDEQLKSGTASVVCLLNNFYPREAKVQWKVDNALQSGNSQESVTEQDSKDSTYSLSSTLTLSKADYEKHKVYACEVTHQGLSSPVTKSFNRGEC", "notes": "as for B7"}, "B9": {"name": "GpH7-A5/GpH7-B3 variant Y300_13S/GpL16-k0 (antibody, human IgG1, kappa)", "heavy 1": "not shown", "heavy 2": "not shown", "light": "DIVMTQSPLSLPVTPGEPASISCQASESLVHSNRNTYLHWYLQKPGQSPQLLIYKVSNRFSGVPDRFSGSGSGTDFTLKISRVEAEDVGVYYCSQNTHVPPTFGQGTKVEIERTVAAPSVFIFPPSDEQLKSGTASVVCLLNNFYPREAKVQWKVDNALQSGNSQESVTEQDSKDSTYSLSSTLTLSKADYEKHKVYACEVTHQGLSSPVTKSFNRGEC", "notes": "as for B7"}, "B10": {"name": "GpH7-A5/GpH7-B3 variant Y300_20W/GpL16-k0 (antibody, human IgG1, kappa)", "heavy 1": "not shown", "heavy 2": "not shown", "light": "DIVMTQSPLSLPVTPGEPASISCQASESLVHSNRNTYLHWYLQKPGQSPQLLIYKVSNRFSGVPDRFSGSGSGTDFTLKISRVEAEDVGVYYCSQNTHVPPTFGQGTKVEIERTVAAPSVFIFPPSDEQLKSGTASVVCLLNNFYPREAKVQWKVDNALQSGNSQESVTEQDSKDSTYSLSSTLTLSKADYEKHKVYACEVTHQGLSSPVTKSFNRGEC", "notes": "as for B7"}, "B11": {"name": "GpH7-A5/GpH7-B3 variant Y300_11K/GpL16-k0 (antibody, human IgG1, kappa)", "heavy 1": "not shown", "heavy 2": "not shown", "light": "DIVMTQSPLSLPVTPGEPASISCQASESLVHSNRNTYLHWYLQKPGQSPQLLIYKVSNRFSGVPDRFSGSGSGTDFTLKISRVEAEDVGVYYCSQNTHVPPTFGQGTKVEIERTVAAPSVFIFPPSDEQLKSGTASVVCLLNNFYPREAKVQWKVDNALQSGNSQESVTEQDSKDSTYSLSSTLTLSKADYEKHKVYACEVTHQGLSSPVTKSFNRGEC", "notes": "as for B7"}, "B12": {"name": "GpH7-A5/GpH7-B3 variant Y300_06M/GpL16-k0 (antibody, human IgG1, kappa)", "heavy 1": "not shown", "heavy 2": "not shown", "light": "DIVMTQSPLSLPVTPGEPASISCQASESLVHSNRNTYLHWYLQKPGQSPQLLIYKVSNRFSGVPDRFSGSGSGTDFTLKISRVEAEDVGVYYCSQNTHVPPTFGQGTKVEIERTVAAPSVFIFPPSDEQLKSGTASVVCLLNNFYPREAKVQWKVDNALQSGNSQESVTEQDSKDSTYSLSSTLTLSKADYEKHKVYACEVTHQGLSSPVTKSFNRGEC", "notes": "as for B7"}, "B13": {"name": "GpH7-A5/GpH7-B3 variant Y300_02A/GpL16-k0 (antibody, human IgG1, kappa)", "heavy 1": "not shown", "heavy 2": "not shown", "light": "DIVMTQSPLSLPVTPGEPASISCQASESLVHSNRNTYLHWYLQKPGQSPQLLIYKVSNRFSGVPDRFSGSGSGTDFTLKISRVEAEDVGVYYCSQNTHVPPTFGQGTKVEIERTVAAPSVFIFPPSDEQLKSGTASVVCLLNNFYPREAKVQWKVDNALQSGNSQESVTEQDSKDSTYSLSSTLTLSKADYEKHKVYACEVTHQGLSSPVTKSFNRGEC", "notes": "as for B7"}, "B14": {"name": "GpH7-A5/GpH7-B3 variant Y300_14T/GpL16-k0 (antibody, human IgG1, kappa)", "heavy 1": "not shown", "heavy 2": "not shown", "light": "DIVMTQSPLSLPVTPGEPASISCQASESLVHSNRNTYLHWYLQKPGQSPQLLIYKVSNRFSGVPDRFSGSGSGTDFTLKISRVEAEDVGVYYCSQNTHVPPTFGQGTKVEIERTVAAPSVFIFPPSDEQLKSGTASVVCLLNNFYPREAKVQWKVDNALQSGNSQESVTEQDSKDSTYSLSSTLTLSKADYEKHKVYACEVTHQGLSSPVTKSFNRGEC", "notes": "as for B7"}, "B15": {"name": "GpH7-A5/GpH7-B3 variant Y296_20W/GpL16-k0 (antibody, human IgG1, kappa)", "heavy 1": "not shown", "heavy 2": "not shown", "light": "DIVMTQSPLSLPVTPGEPASISCQASESLVHSNRNTYLHWYLQKPGQSPQLLIYKVSNRFSGVPDRFSGSGSGTDFTLKISRVEAEDVGVYYCSQNTHVPPTFGQGTKVEIERTVAAPSVFIFPPSDEQLKSGTASVVCLLNNFYPREAKVQWKVDNALQSGNSQESVTEQDSKDSTYSLSSTLTLSKADYEKHKVYACEVTHQGLSSPVTKSFNRGEC", "notes": "as for B7"}, "B16": {"name": "GpH7-A5/GpH7-B3 variant Y300_19Q/GpL16-k0 (antibody, human IgG1, kappa)", "heavy 1": "not shown", "heavy 2": "not shown", "light": "DIVMTQSPLSLPVTPGEPASISCQASESLVHSNRNTYLHWYLQKPGQSPQLLIYKVSNRFSGVPDRFSGSGSGTDFTLKISRVEAEDVGVYYCSQNTHVPPTFGQGTKVEIERTVAAPSVFIFPPSDEQLKSGTASVVCLLNNFYPREAKVQWKVDNALQSGNSQESVTEQDSKDSTYSLSSTLTLSKADYEKHKVYACEVTHQGLSSPVTKSFNRGEC", "notes": "as for B7"}},
  "key": {"[1]": {"target": "FcγRIIIa extracellular domain with C-terminal His tag (human, UniProt P08637 17-208)", "sequence (P08637 17-208)": "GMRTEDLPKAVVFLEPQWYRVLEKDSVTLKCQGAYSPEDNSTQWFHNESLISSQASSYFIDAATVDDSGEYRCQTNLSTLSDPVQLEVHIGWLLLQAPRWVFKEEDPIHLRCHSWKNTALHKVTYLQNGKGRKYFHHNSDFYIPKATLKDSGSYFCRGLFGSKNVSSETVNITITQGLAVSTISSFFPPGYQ", "assay": "SPR (Biacore), both H chains altered; HoCon Ab GpH7-B3/GpL16-k0 = 100"}, "FcγRIa": {"target": "T1, FcγRIa (human, UniProt P12314 16-292)", "T1 construct": "extracellular domain; soluble His-tagged extracellular domain expressed in FreeStyle293 cells, used as analyte in Biacore; also called FcgRI; CD64", "T1 sequence (P12314 16-292)": "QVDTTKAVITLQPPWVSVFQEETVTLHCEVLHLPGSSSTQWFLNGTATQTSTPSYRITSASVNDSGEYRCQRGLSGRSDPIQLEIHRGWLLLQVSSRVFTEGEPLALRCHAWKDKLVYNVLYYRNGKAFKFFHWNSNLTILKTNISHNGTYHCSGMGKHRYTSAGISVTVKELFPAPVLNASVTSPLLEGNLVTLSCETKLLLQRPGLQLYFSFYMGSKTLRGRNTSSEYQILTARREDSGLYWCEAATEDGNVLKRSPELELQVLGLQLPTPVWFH", "assay": "SPR (Biacore), captured antibody, FcγRIa analyte; relative to GpH7-A5/GpH7-B3/GpL16-k0"}},
  "data": [
    {"binder": "B1", "values": [
      {"measurement": "Ho/Con_3a", "setting": "[1]", "result": 56.6, "unit": "%"}
    ]},
    {"binder": "B2", "values": [
      {"measurement": "Ho/Con_3a", "setting": "[1]", "result": 93.3, "unit": "%"}
    ]},
    {"binder": "B3", "values": [
      {"measurement": "Ho/Con_3a", "setting": "[1]", "result": 95.1, "unit": "%"}
    ]},
    {"binder": "B4", "values": [
      {"measurement": "Ho/Con_3a", "setting": "[1]", "result": 93, "unit": "%"}
    ]},
    {"binder": "B5", "values": [
      {"measurement": "Ho/Con_3a", "setting": "[1]", "result": 86.5, "unit": "%"}
    ]},
    {"binder": "B6", "values": [
      {"measurement": "Ho/Con_3a", "setting": "[1]", "result": 87.1, "unit": "%"}
    ]},
    {"binder": "B7", "values": [
      {"measurement": "He/Con_1a", "setting": "FcγRIa", "result": "113 relative, control = 100"}
    ]},
    {"binder": "B8", "values": [
      {"measurement": "He/Con_1a", "setting": "FcγRIa", "result": "117 relative, control = 100"}
    ]},
    {"binder": "B9", "values": [
      {"measurement": "He/Con_1a", "setting": "FcγRIa", "result": "111 relative, control = 100"}
    ]},
    {"binder": "B10", "values": [
      {"measurement": "He/Con_1a", "setting": "FcγRIa", "result": "112 relative, control = 100"}
    ]},
    {"binder": "B11", "values": [
      {"measurement": "He/Con_1a", "setting": "FcγRIa", "result": "107 relative, control = 100"}
    ]},
    {"binder": "B12", "values": [
      {"measurement": "He/Con_1a", "setting": "FcγRIa", "result": "112 relative, control = 100"}
    ]},
    {"binder": "B13", "values": [
      {"measurement": "He/Con_1a", "setting": "FcγRIa", "result": "112 relative, control = 100"}
    ]},
    {"binder": "B14", "values": [
      {"measurement": "He/Con_1a", "setting": "FcγRIa", "result": "112 relative, control = 100"}
    ]},
    {"binder": "B15", "values": [
      {"measurement": "He/Con_1a", "setting": "FcγRIa", "result": "111 relative, control = 100"}
    ]},
    {"binder": "B16", "values": [
      {"measurement": "He/Con_1a", "setting": "FcγRIa", "result": "112 relative, control = 100"}
    ]}
  ]
}
